According to patent US20240309070A1 (ADMARE THERAPEUTICS SOCIETY, published 2024):
Positions count from the first letter of the chain named. Like-named read-outs stand apart in the source and are kept apart here.

B1: A048-H3L1 (antibody, V domains shown)
VH: EVQLLESGGGLVQPGGSLRLSCAASGFSFSSSYYMCWVRQAPGKGLEWIACIYTSSGSAYYADSVKGRFTISRDNSKNTLYLQMNSLRAEDTAVYYCVRNAVGSSYYLYLWGQGTLVTVSS
VL: DIQMTQSPSTLSASVGDRVTITCQASQSVAGNNYLSWYQQKPGKAPKLLIYSVSTLASGVPSRFSGSGSGTEFTLTISSLQPDDFATYYCQGYYNDGIWAFGQGTKVEIK
B2: A048-H4L1 (antibody, V domains shown)
VH: EVQLLESGGGLVQPGGSLRLSCAASGFSFSSSYYMCWVRQAPGKGLEWIACIYTSSGSAYYADSVKGRFTISRTSSTTVTLQMNSLRAEDTAVYYCVRNAVGSSYYLYLWGQGTLVTVSS
VL: B1 VL
B3: A048-H2L1 (antibody, V domains shown)
VH: B2 VH with D63N, S64W, V65A
VL: B1 VL
B4: A048-H1L1 (antibody, V domains shown)
VH: B1 VH with D63N, S64W, V65A
VL: B1 VL
B5: A048-H3L4 (antibody, V domains shown)
VH: B1 VH
VL: B1 VL with D1A, I2Q, Q3V, M4L, T10S, A45V, E72D, D83E, F85V
B6: A048-H3L2 (antibody, V domains shown)
VH: B1 VH
VL: B1 VL with D1A, I2Q, Q3V, M4L
B7: A048-H1L3 (antibody, V domains shown)
VH: B1 VH with D63N, S64W, V65A
VL: B1 VL with T10S, A45V, E72D, D83E, F85V
B8: A048-H1L4 (antibody, V domains shown)
VH: B1 VH with D63N, S64W, V65A
VL: B1 VL with D1A, I2Q, Q3V, M4L, T10S, A45V, E72D, D83E, F85V
B9: A048-H4L2 (antibody, V domains shown)
VH: B2 VH
VL: B1 VL with D1A, I2Q, Q3V, M4L
B10: A048-H2L2 (antibody, V domains shown)
VH: B2 VH with D63N, S64W, V65A
VL: B1 VL with D1A, I2Q, Q3V, M4L
B11: A048-H2L4 (antibody, V domains shown)
VH: B2 VH with D63N, S64W, V65A
VL: B1 VL with D1A, I2Q, Q3V, M4L, T10S, A45V, E72D, D83E, F85V
B12: A048-H3L3 (antibody, V domains shown)
VH: B1 VH
VL: B1 VL with T10S, A45V, E72D, D83E, F85V
B13: A048-H1L2 (antibody, V domains shown)
VH: B1 VH with D63N, S64W, V65A
VL: B1 VL with D1A, I2Q, Q3V, M4L
B14: A048-H4L3 (antibody, V domains shown)
VH: B2 VH
VL: B1 VL with T10S, A45V, E72D, D83E, F85V
B15: A048-H2L3 (antibody, V domains shown)
VH: B2 VH with D63N, S64W, V65A
VL: B1 VL with T10S, A45V, E72D, D83E, F85V
B16: A048-H4L4 (antibody, V domains shown)
VH: B2 VH
VL: B1 VL with D1A, I2Q, Q3V, M4L, T10S, A45V, E72D, D83E, F85V
B17: A048-H5L5 (antibody, V domains shown)
VH: QVTLKESGPVLVKPTETLTLTCTASGFSFSSSYYMCWVRQPPGKALEWIACIYTSSGSAYYANWAKGRFTISRDTSKSQVVLTMTNMDPVDTATYFCVRNAVGSSYYLYLWGQGTLVTVSS
VL: EQVLTQSPATLSLSPGERATLSCQASQSVAGNNYLSWYQQKPGQAPRLLIYSVSTLASGIPARFSGSGSGTDFTLTISSLEPEDFAVYYCQGYYNDGIWAFGQGTKLEIK
B18: A048 parental (antibody, V domains shown)
VH: QEQLEESGGGLVKPEGSLTLTCTASGFSFSSSYYMCWVRQAPGRGLEWIACIYTSSGSAYYANWAKGRFTISRTSSTTVTLQMTRLTAADTATYFCVRNAVGSSYYLYLWGPGTLVTVSS
VL: AQVLTQTPSPVSAAVGGTVTISCQASQSVAGNNYLSWYQQKPGQPPNLLIYSVSTLASGVPSRFKGSGSGTQFTLTISDLECDDAATYYCQGYYNDGIWAFGGGTEVVVK
notes: also called A048 rabbit parental antibody; A048 parental anti-B5 hIgG1

Experiments:
[1] = molecular target: T1, Copenhagen B5 on cells infected with VVCopenhagen (YFP) virus (Vaccinia virus, Copenhagen strain, UniProt P21115 18-317); assay: flow cytometry, HT29 cells infected with Copenhagen VV
T1 construct: also called VV B5

[2] = molecular target: T2, Western Reserve B5 on cells infected with VVddeGFP Western Reserve virus (Vaccinia virus, Western Reserve strain, UniProt Q01227 18-317); assay: flow cytometry, SKOV3 cells infected with WR VV
T2 construct: also called VV B5; WR

[3] = molecular target: T2, Western Reserve B5 on cells infected …; assay: flow cytometry, HT29 cells infected with WR VV
[4] = molecular target: T3, VV B5 monomer protein (Wyeth Vaccinia strain B5 with C-terminal AVI tag and HIS6 tag) (Vaccinia virus, Wyeth strain, UniProt O57254 18-279); assay: BLI (Octet), antibody on AHC sensor, B5 monomer analyte
T3 construct: also called B5 protein; VV B5 protein

[5] = molecular target: T3, VV B5 monomer protein (Wyeth Vaccinia …); assay: ELISA, B5 monomer coated
[6] = molecular target: T3, VV B5 monomer protein (Wyeth Vaccinia …); assay: BLI (Octet), antibody on AHC sensor, B5 monomer analyte; remark: listed apart in the source

| Binder | EC50 [1] [nM] | EC50 [2] [nM] | EC50 [3] [nM] | Kd [4] [nM] | koff [4] [s⁻¹] | kon [4] [M⁻¹ s⁻¹] | EC50 [5] [nM] | Kd [6] [nM] |
| --- | --- | --- | --- | --- | --- | --- | --- | --- |
| B1 | 0.89 | 0.94 | 0.86 | 4.37 | 0.000468 | 107000 | 0.0854 |  |
| B2 | 1.34 | 0.88 | 2.77 | 6.72 | 0.000478 | 71000 | 0.0953 |  |
| B3 | 1.48 | 0.53 | 1.37 | 7.21 | 0.000672 | 93000 | 0.0969 |  |
| B4 | 2.37 | 1.03 | 0.97 | 9.96 | 0.000763 | 76600 | 0.0862 |  |
| B5 | 1.96 | 1.28 | 3.78 | 8.57 | 0.000722 | 84100 | 0.106 |  |
| B6 | 1.87 | 0.67 | 1.32 | 3.83 | 0.000397 | 103000 | 0.0835 | 3 |
| B7 | 1.88 | 1.2 | 3.48 | 8.76 | 0.000846 | 96400 | 0.0802 |  |
| B8 | 0.98 | 0.44 | 0.68 | 12 | 0.000953 | 79400 | 0.102 |  |
| B9 | 1.78 | 0.71 | 6.59 | 7.69 | 0.000481 | 62400 | 0.107 |  |
| B10 | 1.28 | 0.8 | 1.71 | 7.91 | 0.000698 | 88100 | 0.0914 |  |
| B11 | 2.85 | 0.69 | 1.68 | 6.23 | 0.000512 | 81600 | 0.0844 |  |
| B12 | 1.03 | 0.83 | 1.81 | 7.71 | 0.000733 | 94900 | 0.0979 |  |
| B13 | 0.77 | 0.76 | 2.2 | 9.71 | 0.000764 | 78600 | 0.0717 |  |
| B14 | 1.12 | 1.37 | 3.5 | 6.31 | 0.000476 | 75200 | 0.114 |  |
| B15 | 0.77 | 0.55 | 1.73 | 9.23 | 0.000759 | 82100 | 0.0515 |  |
| B16 | 1.32 | 2.36 | 3.05 | 9.6 | 0.000549 | 57000 | 0.114 |  |
| B17 | 2.39 | 1.36 | 2.28 | 8.55 | 0.000521 | 60800 | 0.104 |  |
| B18 | 1.08 | 3.98 | 3.51 | 9.51 | 0.000601 | 62400 | 0.116 |  |
